The values that follow come from patent publication US20090252727A1 (Eli Lilly, published 2009).

Test in all cases: competition with [125I]glucagon, SPA, membranes of 293HEK cells expressing the receptor
Assay [1] deals with T1, human glucagon receptor (human, UniProt P47871 27-477).
T1 construct: Cloned receptor expressed in 293HEK cells; also called human GluR; human GlucR

The target of assay [2] is T2, mouse glucagon receptor (mouse, UniProt Q61606 28-485).
T2 construct: Cloned receptor expressed in 293HEK cells; also called murine GluR; mouse GlucR
T2 chain: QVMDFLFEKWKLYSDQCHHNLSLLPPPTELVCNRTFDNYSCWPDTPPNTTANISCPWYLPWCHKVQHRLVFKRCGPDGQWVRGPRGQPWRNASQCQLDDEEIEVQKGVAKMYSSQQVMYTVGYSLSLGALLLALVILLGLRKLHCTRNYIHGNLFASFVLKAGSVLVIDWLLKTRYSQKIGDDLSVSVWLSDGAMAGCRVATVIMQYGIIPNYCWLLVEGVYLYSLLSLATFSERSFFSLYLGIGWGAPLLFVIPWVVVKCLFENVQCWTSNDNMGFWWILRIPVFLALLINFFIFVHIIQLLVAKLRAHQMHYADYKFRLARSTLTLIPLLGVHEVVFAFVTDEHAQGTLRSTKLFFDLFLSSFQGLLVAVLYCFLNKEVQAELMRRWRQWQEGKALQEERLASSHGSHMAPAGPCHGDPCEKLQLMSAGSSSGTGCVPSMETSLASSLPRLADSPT

The target in assay [3] is T3, rat glucagon receptor (rat, UniProt P30082 28-485).
T3 construct: Cloned receptor expressed in 293HEK cells; also called rat GluR; rat GlucR

In assay [4] the target is T4, cynomologous monkey glucagon receptor (cynomologous monkey, UniProt P47871 27-477 (human entry)).
T4 construct: Cloned receptor expressed in 293HEK cells; also called cyno GluR; cyno GlucR
T4 chain: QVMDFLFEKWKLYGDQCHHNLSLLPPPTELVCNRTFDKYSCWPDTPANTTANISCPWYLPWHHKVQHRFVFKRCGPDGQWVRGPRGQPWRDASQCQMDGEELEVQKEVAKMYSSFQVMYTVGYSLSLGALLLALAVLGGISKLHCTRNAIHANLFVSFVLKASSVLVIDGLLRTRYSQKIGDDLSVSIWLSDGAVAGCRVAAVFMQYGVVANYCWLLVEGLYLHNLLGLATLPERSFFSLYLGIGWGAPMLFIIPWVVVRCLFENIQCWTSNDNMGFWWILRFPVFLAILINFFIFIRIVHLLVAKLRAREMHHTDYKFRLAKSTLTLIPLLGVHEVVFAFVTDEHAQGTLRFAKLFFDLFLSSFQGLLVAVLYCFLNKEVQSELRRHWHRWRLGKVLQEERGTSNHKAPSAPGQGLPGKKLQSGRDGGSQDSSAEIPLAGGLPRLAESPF

Assay [5] addresses T1, human glucagon receptor. The procedure: (§1) A competitive receptor/ligand binding experiment is adapted to a scintillation proximity assay (SPA) format. Incubations are performed in clear bottom, opaque 96-well microplates. Compound is serially diluted 3-fold in binding buffer consisting of 25 mM Hepes, pH 7.4, 2.5 mM CaCl₂, 1 mM MgCl₂, 0.1% fatty acid free BSA, 0.003% tween-20 and Complete^R EDTA-free protease inhibitor tablets. […] Plates are sealed with adhesive sealing tape, mixed end over end, and incubated at room temperature for 12 hours. The radioactivity bound to the receptor (in close proximity to the WGA SPA bead) is quantified on a PE Life and Analytical Sciences Trilux Microbeta plate scintillation counter and expressed as counts per minute (CPM).
The source holds these as a separate data set.

The target of assay [6] is T2, mouse glucagon receptor. Here is the method:
as §1

The target in assay [7] is T3, rat glucagon receptor. The procedure:
as §1
This is another data set of the same source.

The target of assay [8] is T4, cynomologous monkey glucagon receptor. The procedure:
as §1

Where two headings read alike, the source gives them in different places. A value given as a limit tells only on which side of the number the result lay.

B1: Fab fragment of antibody example 4 (Fab4) (Fab, V domains shown)
VH: QVQLQESGPGLVKPSETLSLTCTVSGDDITSGYHDWIRQPPGKGLEWIGYISYSGSTYYSPSLKSRVTISVDTSKNQFSLKLSSVTAADTAVYYCARPPGYYGFGPYALDYWGQGTLVTVSS
VL: DIQMTQSPSSLSASVGDRVTITCSASSSVSYIHWYQQKPGKAPKLLIYTTSYLAHGVPSRFSGSGSGTDFTLTISSLQPEDFATYYCQQRSTLPPTFGGGTKVEIKR
notes: Expressed in E. coli; Fab = VL+CL and VH+CH1 (Fc absent); not shown: His tag
For B1, the inhibition constant (Ki) in the assay with human glucagon receptor [1] is < 50 nM; in the assay with mouse glucagon receptor [2] it was < 50 nM; in the assay with rat glucagon receptor [3] it was < 50 nM; in assay [4] it was < 50 nM; with human glucagon receptor [5], 2.9 nM; with mouse glucagon receptor [6] it was 2.43 nM. Also, the Ki with rat glucagon receptor [7] is 3.3 nM; in assay [8], 9.42 nM.

B2: Antibody of example 4 (Ab4) (antibody, human IgG4 S228P, kappa, F234A L235A, V domains shown)
VH: B1 VH
VL: B1 VL
notes: Humanized full antibody with kappa light chain and modified human IgG4 Fc
B2: the Ki in the assay with human glucagon receptor [1] was < 50 nM; with mouse glucagon receptor [2] it was < 50 nM; in the assay with rat glucagon receptor [3] it was < 50 nM; in assay [4], < 50 nM; with human glucagon receptor [5], 1.34 nM; with mouse glucagon receptor [6] it was 0.83 nM. Moreover, the Ki in the assay with rat glucagon receptor [7] is 1.24 nM; in assay [8], 6 nM.

For orientation: Ki means the equilibrium dissociation constant of an inhibitor or competing ligand from its target.
